According to patent publication US20260209357A1 (CSL INNOVATION, published 2026):
Changes are numbered by the printed parent chain. Names may count otherwise. Blank lines part the entries; values can stand above or below the binder they belong to.

Key:
Human IgG1 Fc (huG1Fc) = molecular target: T1, Human IgG1 Fc (huG1Fc) (human, UniProt P0DOX5 218-449 = IgG part); experiment: SPR, ligand directly immobilised, soluble Fcγ receptor as analyte, pH 7.3
T1 construct: Wild-type Fc control, directly immobilised on the chip; also called G1Fc homodimer

[1] = molecular target: T2, biotinylated human FcRn/β2m (human, UniProt P55899 24-297; P61769 21-119, biotinylated (Biotin-NHS amine chemistry or BirA biotin ligase; site not stated)); experiment: SPR, surface-bound huFcRn/b2m, pH 7.3
T2 construct: The soluble human FcRn/β2m after biotinylation, tethered on streptavidin or neutravidin chips; also called surface-captured biotinylated human FcRn complexed with β2m

[2] = molecular target: T3, soluble recombinant human FcRn/β2m (human, UniProt P55899 24-297; P61769 21-119); experiment: SPR, ligand on surface, soluble HuFcRn/b2m as analyte; pH not printed with the table (paragraph 351 speaks of pH 6.0)
T3 construct: About 42 kDa; also called HuFcRn/b2m; huFcRn/b2m

[3] = molecular target: T2, biotinylated human FcRn/β2m; experiment: SPR, biotinylated FcRn/β2m on streptavidin or neutravidin chip, antagonist as analyte (avidity conditions), pH 7.3
[4] = molecular target: T2, biotinylated human FcRn/β2m; experiment: SPR, biotinylated FcRn/β2m on streptavidin or neutravidin chip, antagonist as analyte (avidity conditions), pH 7.3; column head printed ka (1/s)

Kd (Human IgG1 Fc (huG1Fc)): 0.086 nM
B1: human FcγRI (CD64) (receptor, UniProt P12314 16-292, looked up)
chain: QVDTTKAVITLQPPWVSVFQEETVTLHCEVLHLPGSSSTQWFLNGTATQTSTPSYRITSASVNDSGEYRCQRGLSGRSDPIQLEIHRGWLLLQVSSRVFTEGEPLALRCHAWKDKLVYNVLYYRNGKAFKFFHWNSNLTILKTNISHNGTYHCSGMGKHRYTSAGISVTVKELFPAPVLNASVTSPLLEGNLVTLSCETKLLLQRPGLQLYFSFYMGSKTLRGRNTSSEYQILTARREDSGLYWCEAATEDGNVLKRSPELELQVLGLQLPTPVWFH
notes: extracellular domain; also called FcyRI (CD64)

Kd [3]: 2.4 nM
kon [3]: 970000 M⁻¹ s⁻¹
koff [4]: 0.00236 s⁻¹
B4: huG1FcYTEKF (other)
chain: EPKSCDKTHTCPPCPAPELLGGPSVFLFPPKPKDTLYITREPEVTCVVVDVSHEDPEVKFNWYVDGVEVHNAKTKPREEQYNSTYRVVSVLTVLHQDWLNGKEYKCKVSNKALPAPIEKTISKAKGQPREPQVYTLPPSRDELTKNQVSLTCLVKGFYPSDIAVEWESNGQPENNYKTTPPVLDSDGSFFLYSKLTVDKSRWQQGNVFSCSVMHEALKFHYTQKSLSLSPGK
notes: Human IgG1 Fc with M252Y, S254T, T256E, H433K, N434F, modelled on efgartigimod with five more N-terminal residues (EPKSC); Fc dimer is to be expected; also called benchmark molecule

Continued, binder first:

B2: Vyvgart (other)
chain: DKTHTCPPCPAPELLGGPSVFLFPPKPKDTLYITREPEVTCVVVDVSHEDPEVKFNWYVDGVEVHNAKTKPREEQYNSTYRVVSVLTVLHQDWLNGKEYKCKVSNKALPAPIEKTISKAKGQPREPQVYTLPPSRDELTKNQVSLTCLVKGFYPSDIAVEWESNGQPENNYKTTPPVLDSDGSFFLYSKLTVDKSRWQQGNVFSCSVMHEALKFHYTQKSLSLSPGK
notes: also called Efgartigimod; commercially available Vyvgart product
Kd [1]: 2.3 nM

B3: huG1FcYPY (other)
chain: B4 chain with T39S, E41T, V93P, K218H, F219Y
notes: Fc fragment alone; also called G1FcYPY homodimer
Kd [2]: 16.9 nM
koff [2]: 0.00525 s⁻¹
kon [2]: 311000 M⁻¹ s⁻¹
Kd [3]: 1.1 nM
kon [3]: 492000 M⁻¹ s⁻¹
koff [4]: 0.000532 s⁻¹
